Data reported in the supplement of paper PMC9170038.

What was measured:
MS2 coat protein [1] = assay: apparent KD of MS2 coat protein, switch OFF state (with FMN for OFF switches, without FMN for ON switches); designed switch direction (-1 OFF switch, 1 ON switch): -1; higher = weaker reporter binding; conditions: FMN input: 0 or 200 uM; Eterna round: R93 (includes R88 designs)
Summary of the method: (§1)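 Apparent KD stands for the median, per design, of fits to normalised cluster binding curves. The curves came from titrating on-chip-transcribed RNA switches on Illumina sequencing clusters with SNAP-549-labelled MS2 coat protein, twofold from 0.7 or 1.5 nM to 3 µM. Buffer was 100 mM Tris-HCl pH 7.5, 80 mM KCl, 4 mM MgCl2, without or with constant ligand.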

MS2 coat protein [2] = assay: apparent KD of MS2 coat protein, switch ON state; designed switch direction (-1 OFF switch, 1 ON switch): -1; higher = weaker reporter binding; conditions: FMN input: 0 or 200 uM; Eterna round: R93 (includes R88 designs)
Summary of the method: as §1

Sequence	apparent KD of MS2 coat protein (MS2 coat protein [1]) [nM]	apparent KD of MS2 coat protein (MS2 coat protein [2]) [nM]
CAGUACUGAGGAUAUACAUGAGGAUCACCCAUGUGGUCAAGCUACGAAAGUAGCAAAAGUAGAAGGCAGUACUG [Ex3: 811]	34.6	209
CAGUACUGAGGAUAUACAUGAGGAUCACCCAUGUGUUCCAGCUAGGAAACUAGCAAAUGUAGAAGGCAGUACUG [Ex3: 827]	85.8	183
CGCUAGUCAGGAUAUACAAACAUGUCAAAAGACGUGAAAAAACAUGAGGAUCACCCAUGUAGAAGGGACUAGCG [Mat - Exclusion 2 - JL mod - D18]	17.7	15.7
CGCUAGUCAGGAUAUACGAACAUGUCAAAAGACGUGAAGGGACAUGAGGAUCACCCAUGUAGAAGGGACUAGCG [Mat - Exclusion 2 - JL mod - D4]	131	30.2
CUCAAGUCAGGAUAUAAAAGAAAAGAAGAGAAAGAAAAGAAUUAGAAGGGACAUGAGGAUCACCCAUGUAAGAA [EteRNA is fun!]	60.6	66.9
CUCAAGUUAGGAUAUUGAAGAAAAGAAGAGAAAGAAAAGAACAAGAAGGAACAUGAGGAUCACCCAUGUAAGAA [EteRNA is fun!]	21.8	22.9
CUCAUGUAAGGAUAUCAGUAGUAAAAAAAUAAAAUUACUACUGAGAAGGUACAUGAGGAUCACCCAUGUCCGGG [EX4 374: Super Stable 74]	18.3	21.7
CUCAUGUGAGGAUAUGUACAGAAAAAAAUGGGUGAAACUGUACAGAAGGCACAUGAGGAUCACCCAUGUGAAAA [EX4 378: S S Pseudoknot 3]	21.1	26.1
CUCUAGUCAGGAUAUACAAGAAAAGAAAAGAAAGAAAAGAAGUAGAAGGGACAUGAGGAUCACCCAUGUAAGAA [EteRNA is fun!]	91.5	70.4
CUCUAGUGAGGAUAUGCAAGAAAAGAAGAGAAAGAAAAGAAGCAGAAGGCACAUGAGGAUCACCCAUGUAAGAA [EteRNA is fun!]	71.8	32.4
CUCUUGUCAGGAUAUCGAAGAAAAGAAAAGAAAGAAAAGAACGAGAAGGGACAUGAGGAUCACCCAUGUAAGAA [EteRNA is fun!]	67.6	61.5
CUCUUGUGAGGAUAUAGAAGAAAAGAAGAGAAAGAAAAGAACUAGAAGGCACAUGAGGAUCACCCAUGUAAGAA [EteRNA is fun!]	39.9	34.3
CUCUUGUGAGGAUAUUGAAGAAAAGAAAAGAAAGAAAAGAACAAGAAGGCACAUGAGGAUCACCCAUGUAAGAA [EteRNA is fun!]	36.5	24.8
CUGCAGUAAGGAUAUACAUGAGGAUCACCCAUGUAGGAACUUACAGAACGAAACGCAUGUAGAAGGUACCAGAA [Enususge]	14.3	14.2
CUUAUGUGAGGAUAUCAGUAGUAAAAAAAAAAAAUUACUACUGAGAAGGCACAUGAGGAUCACCCAUGUGCCUU [EX4 323: Super Stable 23]	14.2	14.4
GAAAAACAUGAGGAUCACCCAUGUGAGGAUAUGAACGAAAUAAAAUAAAAAUAAAAGUUCAGAAGGCACAAAAG [Mat - Exclusion 1 - Eli mod - D12]	69.9	34
GAAAAACAUGAGGAUCACCCAUGUUAGGAUAUGCUAUGGAAAAUAAAAAAUAAACAUAGCAGAAGGAACAAAAG [Mat - Exclusion 1 - Eli mod - D31]	36.7	20.3

Sequence	apparent KD of MS2 coat protein (MS2 coat protein [1]) [nM]	apparent KD of MS2 coat protein (MS2 coat protein [2]) [nM]
GAAAACAGAGGAUAUACAUAAGCUAGACGAAAGUCUAGCAAACAUGAGGAUCACCCAUGUAGAAGGCUGAAGAA [Meechl Mod]	27.7	29.2
GAAAACAGAGGAUAUACAUGAUUAUGACGAAAGUCAUAAAAACAUGAGGAUCACCCAUGUAGAAGGCUGAAGAA [Meechl MS2 Ex2 2]	164	130
GAAAACUGAGGAUAUACUUUGGGAAAAGAAAAGAUGAUGUUACAUGAGGAUCACCCAUGUAGAAGGCAGAAAAG [Mat - Exclusion 2 - Mod - D151]	34.5	25.3
GAAAAGUCAGGAUAUACAGAAAAAAAAACGAAAAAAAAUCUGUAGAAGGGACAUGAGGAUCACCCAUGUUAAAA [Mat - Exclusion 4 - Mayanna - D125]	24	46.9
GAAAAGUCAGGAUAUAUGCGAAAAAUAAAAAAAAUAAAAACAUAGAAGGGACAUGAGGAUCACCCAUGUUAAAG [Mat - Exclusion 4 - Mayanna - D135]	25.4	37.7
GAAAAGUGAGGAUAUAGCAAAGGUCACGAAAGUGACAAAGGCUAGAAGGCACAUGAGGAUCACCCAUGUCCAAG [Mat - Exclusion 4 - Eli mod - D99]	49.9	20.3
GAAAAGUGAGGAUAUGUCAAAAGUCACAAAAGUGACAAAAGACAGAAGGCACAUGAGGAUCACCCAUGUGGAAG [Mat - Exaclusion 4 - Eli mod - D52]	41.1	33.8
GAAAAGUGAGGAUAUGUCAAAAGUCACAAAAGUGACAAAAGACAGAAGGCACAUGAGGAUCACCCAUGUGGGAA [Mat - Exaclusion 4 - Eli mod - D50]	211	58.5
GAAAAGUGAGGAUAUUCGGAUAGGAAAACGAAAACCUAUCCGAAGAAGGCACAUGAGGAUCACCCAUGUGGGAA [Mat - Exaclusion 4 - Eli mod - D49]	119	80.3
GAAAGGGCAGGAUAUGCAGAGAGAGAGAGAGAGAGAAAAAAACAUGAGGAUCACCCAUGUAGAAGGGCCGAAAG [salish99-ex2-06]	52.4	38.5
GAAAUGUCAGGAUAUGCGAAGGCGUCUGAUAGACGAGGAUAGCAGAAGGGACAUGAGGAUCACCCAUGUAAAAA [Opal 13]	220	117
GAACGCCUAGGAUAUACAUGAGGAUCACCCAUGUCUCCCAGUCCUGGAGUGACCUCUAGUAGAAGGAGGAAUAA [Ertein]	115	342
GAAGAACAUGAGGAUCACCCAUGUGAGGAUAUACAGAAGGGAAUAAAAUAACCAGAAAGUAGAAGGCACAAGAA [Ex 1 May 40]	45.7	35.1
GAGGAACAUGAGGAUCACCCAUGUGAGGAUAUCGGAGGAGGAGGAGGAGGAGGAGGAGCGAGAAGGUACAAGAG [salish99-Ex1-03]	29.8	22.7
GAUAAACAUGAGGAUCACCCAUGUCAGGAUAUGCACUAACUAACUAACUAACUAGCUAGCAGAAGGGACACUAC [Amethyst 86]	33.4	24.9
GAUAGGCGAGGAUAUACAUGAGGAUCACCCAUGUAAGUAAGCCUGGCUGAAACUGAAUGUAGAAGGCGCACAUU [Ex3Try2_Neo]	39.6	16.2
GAUCCACAUGAGGAUCACCCAUGUAAGGAUAUUUAAAACCGGAGACAACCCUCCGAAGAAAGAAGGUACAAAAC [Ququraes]	12.6	13
